The record followed here is US20240110004A1 (Northwestern University, priority 2022, published 2024).

The subject of one data set is C57BL/6J mice. As to the kind of experiment: Toxicity in WT C57BL/6J mice (CBC, serum chemistry, H&E pathology). The format is in vivo, mouse. Particulars: 3 mg/kg with respect to peptide, osmotic subcutaneous pump, 8 weeks, vs saline. An excerpt: FIG. 21: Optical micrographs for toxicity pathology analysis. H&E stained tissue; scale bar: 200 μm.
FIG. 22: Quantification of in vivo results from toxicity pathology analysis as depicted in FIG. 21. Left: pathology severity scoring of H&E stained tissue; Middle: red blood cell count; Right: white blood cell count.
FIG. 23A-23D: Quantification of in vivo results from toxicity pathology analysis as depicted in FIG. 21. FIG. 23A: represents hemoglobin count; FIG. 23B: total protein count; FIG. 23C: ALT (alanine transaminase) count; FIG. 23D: total bilirubin count.
Methods: To assess the toxicity of P1 at the administrable dose in healthy animals, as compared to HV3-TAT at its operating dose, and saline for the negative control, male C57BL/6J mice were assigned to 3 groups (n=3-4 per group) and administered via osmotic subcutaneous pump (Alzet) either HV3-TAT at 3 mg/kg, P1 at 3 mg/kg, all with respect to peptide concentration, or saline as a negative control for 8 weeks. Animals were checked weekly after drug administration for mortality. At sacrifice, blood was collected from each animal via cardiac puncture using a 25-gauge needle while under isoflurane, and then animals were sacrificed and major organs (brain, lung, heart, liver, spleen, spinal cord, and kidneys) collected, weighed, and stored in 10% buffered formalin followed by paraffin embedment.

The next data set has as its system R6/2 mice. As to the kind of experiment: Immunohistochemistry of DARPP-32 in striatum. The format is in vivo, mouse. Particulars: over saline control. An excerpt:
FIG. 33: Quantification of immunohistochemistry of DARPP32 in striatum of WT and R6/2 mice after treatment with PLP or HV3-TAT (immunohistochemistry stain not shown). p-value for: WT veh as compared to R62 veh: 0.0010; WT+P1 as compared to R62 veh: 0.0019; R62 veh as compared to R62+HV3-TAT: 0.0496; R62 veh as compared to R62+P1: 0.0104; R62+HV3-TAT as compared to R62+P1: 0.9593.
In vivo Efficacy Methods—Immunohistochemistry: Mice were anaesthetized with isoflurane and transcardially perfused with PBS. After post-fixed with 4% paraformaldehyde, brains were sliced and frozen. Brain sections (20 μm, coronal) were used for immunohistochemical localization of DARPP-32 (1:14000, Abcam) using the IHC Select HRP/DAB kit (Millipore). Imaging of slices was conducted on an all-in-one fluorescence microscope (Keyence). The same image exposure times and threshold settings were used for sections from all treatment groups. Quantitation of DARPP-32 immunostaining was conducted using NIH image J software.

The conditions of data set [1]: human, microsomes.
Protocol: At each time point, 10 μL of supernatant was diluted with 90 μL of water with 0.1% trifluoroacetic acid.

Where no end group is shown, it is not given here.

Protocol for enzymes: Stability of PLPs Methods I: For enzyme-induced cleavage experiments, the molar concentration of enzymes was set to 0.1 μM. The concentration of side-chain peptides (having sequence identity of SEQ ID: 1) varied in the range of 50-200 μM. For each enzyme, temperature was set for optimal enzyme activity. In a typical experiment, P1 or HV3-TAT was dissolved in DPBS (pH 7.4) or hydrochloric acid solution (pH 2), to obtain a stock polymer/peptide solution with a peptide concentration of 200 μM. Next, 5 μL of enzyme stock solution (10 μM) was added into 500 μL of the polymer/peptide solution which was subsequently stirred in a preheated oil bath at 37° C. In this case, the molar ratio of peptide substrate to enzymes was 2000:1. During the cleavage, aliquots were taken for HPLC analysis at predetermined time points. Each degradation experiment was repeated three times. Enzyme pretreated P1 was also run on SDS-PAGE and visualized with Coomassie Blue staining.
Protocol for red blood cells: Hemocompatibility Methods: Before in vivo studies could be conducted, hemocompatibility of the compounds was also assessed via activated clotting time (ACT) and hemolytic activity. Peptide-in-blood and polymer-in-blood dilutions were performed at volume ratios of 1:10000, 1:5000, 1:1000, 1:500, 1:250, and in some cases 1:100.
Regarding the hemolytic activity assay, the hemolytic assessments required 25 ml of whole human blood mixed with Na Citrate anticoagulant to be obtained. To prepare solution of erythrocytes, whole blood was centrifuged at 500 g for 5 minutes, and plasma aspirated. The same volume of plasma removed was replaced with 150 mM NaCl buffer (in Millipore water). Tube was inverted to mix, centrifuged at 500 g for 5 min, and supernatant removed, and this step repeated 2×. Finally, red blood cells (RBC) were resuspended in PBS. 10 μL of compound was added to 190 μL of diluted red blood cell erythrocyte solution in a 96 well plate (n=4). 20% Triton X acted as the positive control, and PBS acted as the negative control/vehicle. Plates were incubated at 37° C. for 1 hour. Plates were centrifuged for 5 min at 500×g to pellet intact erythrocytes. Using a multichannel pipet, 100 μl of supernatant was transferred from each well into a clear, flat-bottomed 96-well plate. Absorbance of supernatants was measured with a plate reader at 405 nM

On to “P1: PLP homopolymer having peptide side chains of SEQ ID: 1 (HVLVMSATRR), made by ROMP of norbornene peptide monomer M1 (also: side chains of polynorbornene homopolymer (PLP, ROMP of norbornene peptide monomer))”, for which, in the data set on C57BL/6J mice, the “complete blood count (CBC) panel and serum chemical analysis” value is recorded as “no significant difference between groups”; the “pathology of H&E stained tissues” value was “No pathological differences”. Further, the “DARPP-32 levels in striatum (immunohistochemistry)” value in the data set on R6/2 mice is reported as “significantly increased DARPP-32 levels”. Besides, the “molecular weight on SDS-PAGE after enzyme treatment” value with enzymes was “maintained molecular weight”. The liver microsomal stability result in data set [1] is reported as “superior stability”. Also, the hemolytic activity entry with red blood cells is “non-significant”.
For the substance “peptide sequence HVLVMCAT (HV3) coupled to the cell penetrating, HIV-derived TAT peptide [HV3-TAT, reference compound]”, in the data set with C57BL/6J mice, the “complete blood count (CBC) panel and serum chemical analysis” value is listed as “no significant difference between groups”; the “pathology of H&E stained tissues” value is “No pathological differences”.
